From PMC8101287, “Molecular characterization of HLA class II binding to the LAG‐3 T cell co‐inhibitory receptor” (European Journal of Immunology, 2020)

Molecular target: HLA‐DR1 (HLA‐DRA1*01:01/HLA‐DRB*01:01) complexed with the HA_(306‐318) peptide, refolded from E. coli (human | )
Assay: SPR
Conditions: both partners purified

B1: LAG‐3:Fc fusion protein (four extracellular domains of LAG‐3 and the Fc domain of IgG) (Fc fusion)
chain: LQPGAEVPVVWAQEGAPAQLPCSPTIPLQDLSLLRRAGVTWQHQPDSGPPAAAPGHPLAPGPHPAAPSSWGPRPRRYTVLSVGPGGLRSGRLPLQPRVQLDERGRQRGDFSLWLRPARRADAGEYRAAVHLRDRALSCRLRLRLGQASMTASPPGSLRASDWVILNCSFSRPDRPASVHWFRNRGQGRVPVRESPHHHLAESFLFLPQVSPMDSGPWGCILTYRDGFNVSIMYNLTVLGLEPPTPLTVYAGAGSRVGLPCRLPAGVGTRSFLTAKWTPPGGGPDLLVTGDNGDFTLRLEDVSQAQAGTYTCHIHLQEQQLNATVTLAIITVTPKSFGSPGSLGKLLCEVTPVSGQERFVWSSLDTPSQRSFSGPWLEAQEAQLLSQPWQCQLYQGERLLGAAVYFTELSSPGAQRSGRAPGALPAGHL
  Kd: 13.1 µM
